This passage reports activity results from patent US20180111975.

Holding throughout (experiment): cell_activity
One data set concerns ZFN 51446 (synthetic). The following applies: paired with 51536, CD34+ cells.
The test system of a further data set is ZFN 51463 (synthetic). The following applies: paired with 51536, CD34+ cells.
Another data set concerns ZFN 46801 (synthetic). To be noted: paired with 47923, K562, 25 ng each.
Another data set concerns ZFN 51477 (synthetic). To be noted: paired with 51536, CD34+ cells.
A further data set relates to ZFN 51478 (synthetic). The following applies: paired with 51536, CD34+ cells.
The test system of a further data set is ZFN 51484 (synthetic). To be noted: paired with 51536, CD34+ cells.
A further data set relates to ZFN 51487 (synthetic). To be noted: paired with 51536, CD34+ cells.
A further data set has as its system ZFN 51856 (synthetic). To be noted: paired with 51949, CD34+ cells, 500 ng mRNA each.
The subject of the next data set is ZFN 51862 (synthetic). To be noted: paired with 51949, CD34+ cells, 500 ng mRNA each.
For a further data set, the system named is ZFN 47923 (synthetic). The following applies: paired with 46801, K562, 25 ng each.
Another data set concerns ZFN 51519 (synthetic). The following applies: paired with 51446, CD34+ cells.
The next data set deals with ZFN 51534 (synthetic). The following applies: paired with 51446, CD34+ cells.
The subject of a further data set is ZFN 51535 (synthetic). To be noted: paired with 51446, CD34+ cells.
The next data set concerns ZFN 51536 (synthetic). The following applies: paired with 51446, CD34+ cells.
The next data set relates to ZFN 51541 (synthetic). The following applies: paired with 51446, CD34+ cells.
The test system of the next data set is ZFN 51556 (synthetic). To be noted: paired with 51446, CD34+ cells.
The test system of the next data set is ZFN 51979 (synthetic). To be noted: paired with 51857, CD34+ cells, 500 ng mRNA each.
The next data set deals with ZFN 51982 (synthetic). To be noted: paired with 51857, CD34+ cells, 500 ng mRNA each.
A further data set concerns ZFN 51990 (synthetic). The following applies: paired with 51857, CD34+ cells, 500 ng mRNA each.
Another data set concerns ZFN 51993 (synthetic). To be noted: paired with 51857, CD34+ cells, 500 ng mRNA each.
A further data set relates to ZFN 52015 (synthetic). The following applies: paired with 51857, CD34+ cells, 500 ng mRNA each.
The test system of another data set is ZFN 52032 (synthetic). The following applies: paired with 51857, CD34+ cells, 500 ng mRNA each.

Consider “AAAGCAACTGTTAGCTTGCACTAGACTA (double strand) [BCL11A +58 enhancer left half-site, 4-finger]”, for which the activity turned out to be 83.7 % indels with ZFN 51446 (synthetic) and 82.7 % indels with ZFN 51463 (synthetic).

Take “AAAGCAACTGTTAGCTTGCACTAGACTA (double strand) [BCL11A +58 enhancer left half-site, 6-finger]”: the activity in the data set on ZFN 46801 (synthetic) was 9.3 % NHEJ; with ZFN 51477 (synthetic), 72 % indels; in the data set on ZFN 51478 (synthetic), 72.3 % indels; with ZFN 51484 (synthetic), 75.2 % indels; with ZFN 51487 (synthetic) it was 66.3 % indels; in the data set on ZFN 51856 (synthetic), 38.4 % indels. Besides, the activity in the data set on ZFN 51862 (synthetic) was determined as 18.4 % indels.

Turning to “CACAGGCTCCAGGAAGGGTTTGGCCTCT (double strand) [BCL11A +58 enhancer right half-site]”, the activity was 9.3 % NHEJ in the data set on ZFN 47923 (synthetic); 81.5 % indels in the data set with ZFN 51519 (synthetic); 84.2 % indels in the data set on ZFN 51534 (synthetic); 82.2 % indels with ZFN 51535 (synthetic); 83.7 % indels in the data set with ZFN 51536 (synthetic); 87.8 % indels with ZFN 51541 (synthetic). For the same sequence, the activity in the data set on ZFN 51556 (synthetic) came to 74.1 % indels; in the data set with ZFN 51979 (synthetic), 39.8 % indels; with ZFN 51982 (synthetic) it was 30.9 % indels; with ZFN 51990 (synthetic), 51 % indels; in the data set with ZFN 51993 (synthetic), 43.9 % indels; in the data set on ZFN 52015 (synthetic), 35.2 % indels. The activity with ZFN 52032 (synthetic) is 53.9 % indels.
